Results published in the DeepSol protein solubility set.

Test: soluble on expression in E. coli; label from the status in PepcDB or PDB records

| Sequence | soluble on expression in E. coli |
| --- | --- |
| MLGLLRRLFDNNEREIARYYKQVVEPVNRLEAEVEKLPDLAAAYRELKEKHEKGASLDELLPMAFALTRESAKRYLGMRHFDVQLIGGAVLHEGKIAEMKTGEGKTLVATLAVALNALTGKGVHVVTVNDYLARRDAEWMGPVYRGLGLSVGVIQHASTPAERRKAYLADVTYVTNSELGFDYLRDNMAISPDQLVLRHDHPLHYAIIDEVDSILIDEARTPLIISGPAEKATDLYYKMAEIAKKLERGLPAEPGVRKEPTGDYTVEEKNRSVHLTLQGIAKAEKLLGIEGLFSPENMELAHMLIQAIRAKELYHRDRDYIVQDGQVIIVDEFTGRLMPGRRYGEGLHQAIEAKEGVRIERENQTLATITYQNFFRLYEKRAGMTGTAKTEEKEFQEIYGMDVVVVPTNRPVIRKDFPDVVYRTEKGKFYAVVEEIAEKYERGQPVLVGTISIEKSERLSQMLKEPRLYLPRLEMRLELFKKASQKQQGPEWERLRKLLERPAQLKDEDLAPFEGLIPPKGNLRTAWEGLKRAVHTLAVLRQGIPHQVLNAKHHAREAEIVAQAGRSKTVTIATNMAGRGTDIKLGGNPEYLAAALLEKEGFDRYEWKVELFIKKMVAGKEEEARALAQELGIREELLERIREIREECKQDEERVRALGGLFIIGTERHESRRIDNQLRGRAGRQGDPGGSRFYVSFDDDLMRLFASDRVIAMLDRMGFDDSEPIEHPMVTRSIERAQKRVEDRNFAIRKQLLQFDDVLSRQREVIYAQRRLILLGKDEEVKEAAIGMVEETVASLAENFLNPEVHPEDWDLEGLKATLLDTAPQLQDFPFAELRALKAEEAVERLVEAALKAYEAREAELSPPLMRAVERFVILNVVDNAWKEHLHNLDVLRQGIFLRGYGQKDPFQEYKIEATRLFNEMVAFIKSEVAKFLFRLKVEAEPVRPVREAPYVPVPEAKPEPSEVFGVERKRATPPPQPGLSRAERRRLMRQEKKRKK | soluble |
| MSDRHMSSIFPECDHLKQIYDKCFTEFFQKFITPNYRHQYAVNPCERLHDVYKRCVEERLATQRPFEIDLDEIRKEYLNTDDDKLKDRQNNQKTNSENKCSSS | not soluble |
| MGSDKIHHHHHHMSIVDKFGEKVGEIAENDPVKARKLLLAGYRLQEKRLALFPDRKLPMSGQYVAKIVMNNIIQALAKPENAAMVSIFVPGELLTAAGLTPYSVEALSCFIAGTKCEQAFLRQTEKEGFPETMCSYHRVFLGAALNGIVPKPKCMVYTNLACDGNMMTFPYLKERYEIPSFYIDVPYEKNYDSVMYVAKQLRELKSFLQDVTGREITEESVKKAVDKSKIASNNYYRQLHLRKGHDIASTLTNELYALFMCHLLAGTDESVRYTQLLRDDVRRAPAGDGFHVLWMHTMPFLQDAVKDVFNYSDTIHISASDFIADGFRSMESDDPYEALAEKMVYCIYNGSVNQRIDEAKELADTVGADGAVLFAHWGCKNTIGASSLIKRSLEREGLPTMVLDGDGCNPANASDGQISTRLQAFVEMLTEQERN | not soluble |
| MGSDKIHHHHHHMLNKVLTHLDENIEKSLERLFSLLRFQSISTDFAYKDECRKAADWLVEDLKSIGFKASRRDTSGHPMVVGHHPGPSDDCLHVLFYGHYDVQPVDPLNLWEDDPFTPSLKEREGEKVICARGASDDKGQLMTFIEACRAFKKETGQLPVRVTVLFEGEEESGSSSLVPFLKANKDELKADCALVCDTSMWDADTPSVSVALRGILGEEIIITAANRDLHSGYFGGAAANPIRILTKVLAGLHDENNRVTLPGFYDGVEETPPHILQSWNALNCTAENFLGPIGLSLPAGEKGRSVLELVWARPTAEINGISGGYEGEGIKTVIASQASAKVSFRLVHKQDPEKIRQAFRDYVCSLIPADCSVVFKEHGASPAIQLPYDSPFIKTAKDALSQEWNNPALLTVMGGSIPIVADFQSILDMETLLVGFALADDRIHSPNEKYNLKSFHKGQRSWARILATLAKTGG | not soluble |
| MSLKSRTIKSIEVFPVQLPVKRTFNFASGSAGAQGSLAKLVFVKVTDSEGCHGWGEGRAHPQWSYETPESLVSTLRKHLAPAVIGLDIWDRRNLHARMHAAVGRGPSTGMPVAKAALDIAVHDLCARASGLPLRAFLGGSSEKTEVALSWTVAVKSPAEVGDDVAAGRSEGFAHFNFKVGVSLKQDEELVRAARTHVPADSFLWMDANQGVEFTRAVRLARVLEEHAVNVLEQPLAADQMHQMRHLRSQTAIPLAVDESSVSPGDYFAHAAEGLVDYFVLKLTRTGGIWPTLLQLGTATSAGHGLLVSGLSDSMVTKLAACQVAAAFGFTGPAALNGSQFLDDSVLFPTKSAVERRGIVHLDTSPGLGIEPDENALRAHAWKTDCVEGHHHHHH | soluble |
| MFQMRLNLVIELRDAPGQLVSVLEPLGSTGVNIVTVIHERDREYGPVVPVQLTVEGDRETLDAAIGRLQEQGVNIIEMDGAPLREKFTTILIGDIAEGDLQETVEAVNSVQGASVLDLSLRMSEGRSAARITFEAEHGSRDEVLRRINEAAMERNLLLVSEV | not soluble |
| MENSDDIRLIVKIAQLYYEQDMTQAQIARELGIYRTTISRLLKRGREQGIVTIAINYDYNENLWLEQQLKQKFGLKEAVVASSDGLLEEEQLSAMGQHGALLVDRLLEPGDIIGFSWGRAVRSLVENLPQRSQSRQVICVPIIGGPSGKLESRYHVNTLTYGAAARLKAESHLADFPALLDNPLIRNGIMQSQHFKTISSYWDSLDVALVGIGSPAIRDGANWHAFYGSEESDDLNARHVAGDICSRFYDINGGLVDTNMSEKTLSIEMAKLRQARYSIGIAMGEEKYSGILGALHGRYINCLVTNRETAELLLK | soluble |
| ADTMTFTAKNGNVTFDHKKHQTIVPDCAVCHGKTPGKIEGFGKEMAHGKSCKGCHEEMKKGPTKCGECHKK | soluble |
| MNPLSIVIITLNEENRIGRLLEDLTEQTFKNFEVIVVDSNSSDATCEVAQSFSASIPDLTVHKMDKQGVSLGRNTGASLAKHERLLFLDADVRLSPDFLTKALTQLNEKGLEVAGVYMGSKGLPVAHKLGYMTFNIGLFLTQFAFPTAVGACIFSTRRAHKDLLGFDENITLCEDCDYVKRASRTWRFRFLPMTFEFDPRRLEQDGFLRMGYTYLKANVRRFLFGEMRNNEMEYKFGHYSNQKLEHHHHHH | soluble |
| MSLNIIERQKLTQSLKLSQMMKLSINILKMSVMDLNKFIEKEFSEDSGISVELNYSKKENFNGGKEAEMNYPTDEKNFFQILEEQLSYFKINKKIKEICIFIINNLDKKGYLELSKIEIKDILEVSNKELEEAFDIIHNLEPYGIGAYSLEECLKIQLKAKKIIEEKLSLFIDNYLYLLADKKYDLIKEKLNINDNILFSYIDIIKSLNPIPSRGYSVGKVRKIIPDVLVEIKKNEIFYEINRASIPQINVKDKIEDEGHHHHHH | not soluble |
| MAAIGVHLGCTSACVAVYKDGRAGVVANDAGDRVTPAVVAYSENEEIVGLAAKQSRIRNISNTVMKVKQILGRSSSDPQAQKYIAESKCLVIEKNGKLRYEIDTGEETKFVNPEDVARLIFSKMKETAHSVLGSDANDVVITVPFDFGEKQKNALGEAARAAGFNVLRLIHEPSAALLAYGIGQDSPTGKSNILVFKLGGTSLSLSVMEVNSGIYRVLSTNTDDNIGGAHFTETLAQYLASEFQRSFKHDVRGNARAMMKLTNSAEVAKHSLSTLGSANCFLDSLYEGQDFDCNVSRARFELLCSPLFNKCIEAIRGLLDQNGFTADDINKVVLCGGSSRIPKLQQLIKDLFPAVELLNSIPPDEVIPIGAAIEAGILIGKENLLVEDSLMIECSARDILVKGVDESGASRFTVLFPSGTPLPARRQHTLQAPGSISSVCLELYESDGKNSAKEETKFAQVVLQDLDKKENGLRDILAVLTMKRDGSLHVTCTDQETGKCEAISIEIAS | not soluble |
| MRAIIIGIGQCGTKIADIFSLVDFEALAINTSKSDLEYLKHIPPERRILVGESIVGGKGVNANPLLGREAMKRDLPMVMKKISSLVGYEDVDIFFLTFGFGGGTGAGGTPVLAEALKEEYPDSLVVAIGALPLKEEGIRPTINAAITIDKLSRIVDSIIAIDNNKLKESDEDISQAYEKINYAIVERIASLLALIDVPGEQTLDASDLKFVLRAMGSFATVGYAKADATKIKSLSRLIIRSFENEGLYLDVNLESALYGLVAIHGPPEVLKAKEIFDALSELSQRIRGKQIFRGFYPDPREREVEVVTLLSGIYESKSIENIVITAKRYAREFMKAKEEGEMKKRELLKGLPDFEDIYPGEVDEG | soluble |
| MSQATKRKHVVKEVLGEHIVPSNQQQIVRVLRTPGNNLHEVETAQGQRFLVSMPSKYRKNIWIKRGDFLIVDPIEEGEKVKAEISFVLCKDHVRSLQKEGFWPEAFSEVAEKHNNRNRQTQPELPAEPQLSGEESSSEDDSDLFVNTNRRQYHESEEESEEEEAA | soluble |
| MGSDKIHHHHHHMATNTGHSNPKEALTFMNAPQLDIHQPRIAAFFDLDKTIIATSSALAYGREFMHSGLITPAEALQMSMAKATYMFSGYSSEQMDHTKNQLAHLITGWSEEQVREIANDTLQSVVAPAIYAEARDLIHMHQETGHDVVIISASARILVEAIAAELGVDQVVATELTVVDGKFTGEVPFYCKGAAKAQAILDLTDKRGYQLDRSFAYSDSITDLPMLEAVGNPRAVNPDRALKKVALDRDWEIHTFKNPVALFSKPTKRDLQISTGVAAGVAAVVGSVMWWKSLNGRSDRLRLSCTRDPGTQM | not soluble |
| MSGDDDIPEGLEAINLKMNATTDDSLESTRRMLALCEESKEAGIKTLVMLDDQGEQLERCEGALDTINQDMKEAEDHLKGMEKCCGLCVLPWNKTDDFEKTEFAKAWKKDDDGGVISDQPRITVGDSSMGPQGGYITKITNDAREDEMDENVQQVSTMVGNLRNMAIDMSTEVSNQNRQLDRIHDKAQSNEVRVESANKRAKNLITK | not soluble |
| MGSDKIHHHHHHMGKKYDVYGVGNALVDIEYEVSPELLQELKIDKGVMTLLDEDSQNHILENLKNLHCHKSCGGSAANTMVAISQLGGKAFYSCKVANDEFGDFYIEDLLNSQVDTNLKNGDRQSGITGKCLVLVTPDADRTMNTFLGITEKFSTQELVSSALADSEYIYIEGYLVTSPTAKEAAIKAREIAEKAGVKTAMSLSDYNMVKFFKDGLLDIIGPGLDLIFANESEALELADTQDFQVAVDKLKTLSKKFAITRGSKGSVVFDGQELIEIAAPQVKAIDTVGAGDMYAGAFLYGITQSMSYEEAGKLASTAASKIVTSYGPRLKTEELKALVSA | not soluble |
| SLNSVKRVGGSNRYGTAVQISKQMYSTASTAVIVGGSSYADAISAAPLAYQKNAPLLYTNSDKLSYETKTRLKEMQTKNVIIVGGTPAVSSNTANQIKSLGIS | not soluble |
| AKQAAQSTFNSFHEWAKQAEAMRNPSRMDIYKIYKQDAPHSHPMSDEQQEEFLHTLKALNGKNGIEVRTQDHDSVRNKKDRNLDKYIAESPDAKRFFYRIIPKHERREDKNQGRLTIGVQPQYATQLTRAMATLIGKESAITHGKVIGPACHGQMTDSAVLYINGDVAKAEKLGEKLKQMSGIPLDAFVEHTPLSMQSLSKGLSYAESILGDTRGHGMSRAEVISDALRMDGMPFLARLKLSLSANG | not soluble |
| MSRPPPPRAASGAPLRPATVLGTMEMGRRMDASASAASVRAFLERGHSELDTAFMYCDGQSENILGGLGLGLGSGDCTVKIATKANPWEGKSLKPDSIRSQLETSLKRLQCPRVDLFYLHAPDHSTPVEETLCACHQLHQEGKFVELGLSNYASWEVAEICTLCKSNGWILPTVYQGMYNATTRQVEAELLPCLRHFGLRFYAYNPLAGGLLTGKYKYEDKDGKQPVGRFFGNNWAETYRNRFWKEHHFEAIALVEKALQTTYGTNAPRMTSAALRWMYHHSQLQGTRGDAVILGMSSLEQLEQNLAATEEGPLEPAVVEAFDQAWNMVAHECPNYFR | soluble |
